The values below are quoted from earlier work in article PMC4023866.

Usually pKd stands for the negative decadic logarithm of the Kd, by convention in mol/L.

The target of the data set is GAPDH (Homo sapiens) (UniProt P04406).

pKd: −log10 of the molar value.

Consider NleB (from UniProt B7UI21), for which the pKd is 4.44.
